This note sets out measurements from article PMC6128732.

The experiment addresses Biotinylated Xenopus laevis XRCC4-Avitag (Xenopus laevis). As to the kind of experiment: BLI.

On to “Xenopus laevis XLF^1-226 (C-terminally truncated XLF) (from UniProt A0A1L8ENT6 1-226) (domain or fragment)”, for which the Kd worked out at 280 nM.
